From the nanobody polyreactivity screen of Harvey et al. (2022)

Test: yeast display, Sf9 membrane polyspecificity reagent, FACS + sequencing; frameworks hold sequencing errors
Procedure, shortened: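 Genes from sorted yeast were amplified by colony PCR, read by MiSeq 2 × 250 sequencing and filtered on CDR length. These cells carried a synthetic nanobody library in Saccharomyces cerevisiae BJ5465 and were sorted by FACS into low and high (top ~1%) gates on anti-HA and streptavidin fluorescence. Polyreactivity is labelled according to the gate of origin.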

QVQLVESGGGLVQAGGSLRLSCAASGIIFTYYAMGSYRQAPGKERELVAAISSRGDSTYYADSVKGRCTISRDNAKNTVSLQLNSLKTEDTAVYYCNRYLSRPLRAMYYWGIGTQVTVSS
polyreactivity (PSR sort gate): high polyreactivity

QVQLVESGGGLVQAGGSLRLSCAASGIIFTYYAMGWYRQAPGKERELVAAISYRGGSTNYADSVKGRFTISRDNAKNTVYLQMNSLKPEDTAVYYCAAKSYWKRFRVLYDYWGQGTQVTVSS
polyreactivity (PSR sort gate): high polyreactivity

QVQLVESGGGLVQAGGSLRLSCAASGIIFTYYAMGWYRQAPGKERELVAAITSSAGSTYYADSVKGRFTISRDNAKNTVYLQMNSLKPVDTAVYYCAAYSVYYYQGDDYWGQGTQVTVSS
polyreactivity (PSR sort gate): high polyreactivity

QVQLVESGGGLVQAGGSLRLSCAASGIIFTYYAMGWYRQAPGKERELVADIDWSGDGTYYADSVKGRFTISRDNAKNTVYLQMNSLKPEDTAVYYCAAEGTETYYVFYDQPEITLYDYWGQGTQVTVSS
polyreactivity (PSR sort gate): low polyreactivity

QVQLVESGGGLVQAGGSLRLSCAASGIIFVAYARGWYRQAPGKERELVAAITWGGGRTYYADSVKGRFTISRDNAKNTVYLQMNSLKPEDTAVYYCAAVVWYDPRATYVYWGQGTQVTVSS
polyreactivity (PSR sort gate): low polyreactivity

QVQLVESGGGLVQAGGSLRLSCAASGIIFVINAMGWYRQAPGKERELVATITGSGTTNYADSVKGRFTISRDNAKNTVYLQMNSLKPEDTAVYYCARDDTEYARTGAYDYWGQGTQVTVSS
polyreactivity (PSR sort gate): low polyreactivity

QVQLVESGGGLVQAGGSLRLSCAASGIIFVSYMGWYRQAPGKERELVAAIRWSGGRTYYADAVKGRFTISRDNAKNTVYLQMNSLKPEDTAVYYCNKRVYYSRDVTSRVGRYDFWGQGTQVTVSS
polyreactivity (PSR sort gate): high polyreactivity

QVQLVESGGGLVQAGGSLRLSCAASGIIFWAYALGWYRQAPGKERELVAVISRGGSTNYADSVKGPFTISRDNAKNTVYLQMNSLKPEDTAVYYCAARYGWGQGTQVTVSS
polyreactivity (PSR sort gate): high polyreactivity

QVQLVESGGGLVQAGGSLRLSCAASGIIFWRHVMGWYRQAPGKERELVATISTRGGNTYYADSVKGRFTISRDNAKNTVYLQMNSVKPEDTAVYYCAAGKNGYTYSRSYSYGYWGQGTQVTVSS
polyreactivity (PSR sort gate): high polyreactivity

QVQLVESGGGLVQAGGSLRLSCAASGIIFWRYAMGWYRQAPGKERELVAAIRYRAGSTYYADSVKGRFTISRDNAKNTVYLQLNSLKPEDTAVYYCAAGWWTSPDRRGGDYWGQGTQVTVSS
polyreactivity (PSR sort gate): high polyreactivity

QVQLVESGGGLVQAGGSLRLSCAASGIIFWVNAMGWYRQAHGKETELVAAITISGVSTYYADSVKGRFTISRDNAKNTVYLQMNSLKPEDTAVYYCAKDPTFSSSFAVSLGFDSWGQGTQVTVSS
polyreactivity (PSR sort gate): low polyreactivity

QVQLVESGGGLVQAGGSLRLSCAASGIIFWWYAMGWYRQAPGKEMELVAAISGTGGSTYYADSVKGRFTISRDNAKNTVYLQMNSLKPEDTAFYYCAARGKSSSYYDYDYWGQGTQVTVSS
polyreactivity (PSR sort gate): low polyreactivity

QVQLVESGGGLVQAGGSLRLSCAASGIIFWYYAMGWYRPAPGKERELVAAISSGGGTNYADSVKGRFTISRDNAKNTVYLQMNSLKPEDTAVYYCAVASGPELDYWGQGTQVTVSS
polyreactivity (PSR sort gate): low polyreactivity

QVQLVESGGGLVQAGGSLRLSCAASGIIFWYYAMGWYRQAPGIERELVAAISQSGGRTYYADSVKGRFTISRDNAKKTVYLQMNSLKPEDTAVYYCAAEPYTGYGYWGQGTQVTVSS
polyreactivity (PSR sort gate): high polyreactivity

QVQLVESGGGLVQAGGSLRLSCAASGIIFWYYAMGWYRQAPGKERELVAAISGSGGRTYYADSVKGRFTISRDNAKNTVYLQMNSLKPEDTAVYYCNALRAAFYHRARELDYWGQGTQVTVSS
polyreactivity (PSR sort gate): high polyreactivity

QVQLVESGGGLVQAGGSLRLSCAASGIIFYAYAMGWYRQAPGKERELVARISRGGSTNYADSVKGRFTISRDNAKNTFYLQMNSLKPEDTAVYYCAAYYAYLRYGGLYEYWGQGTQVTVSS
polyreactivity (PSR sort gate): high polyreactivity

QVQLVESGGGLVQAGGSLRLSCAASGIIFYDYAMGWYRQAPGKERELVAAIDTGDSTYYADSVKGRFTISRDNAKKTVDLQMNSLKPEDTAVYYCAADYIFYTYIFYWGQGTQVTVSS
polyreactivity (PSR sort gate): high polyreactivity

QVQLVESGGGLVQAGGSLRLSCAASGIIFYDYAMGWYRQAPGKERELVAAISRSGGSTYYADSVKGRFTISRDNATNTVYLQMNSLKPEDTAVYYCNADEVVWGYNYWGQGTQVTVSS
polyreactivity (PSR sort gate): low polyreactivity

QVQLVESGGGLVQAGGSLRLSCAASGIIFYDYAMGWYRQAPGKERELVAAITSSGGSTYYADSVKGRFTISRDNAKNTVYLQMNSLKPEDTAVYYCAARTRSYWSTTYYYWGQGTQVTVSS
polyreactivity (PSR sort gate): high polyreactivity

QVQLVESGGGLVQAGGSLRLSCAASGIIFYDYVMGWYRQAPGKERELVTAISSNGGSTYYADSVKGRFTISRDNAKNTVYLQMNRLKPEDTAVYYCAAEGKSYPWPWYFDYWGQGTQVTVSS
polyreactivity (PSR sort gate): high polyreactivity

QVQLVESGGGLVQAGGSLRLSCAASGIIFYEYAMGWYRQAPGKERELVATITSGGSTNYADSVKGRFTISRDNAKNTVYLQMNSLKPEDTAVYYCNADWWWGYGYWGQGTQVTVSS
polyreactivity (PSR sort gate): low polyreactivity

QVQLVESGGGLVQAGGSLRLSCAASGIIFYEYAMGWYRQAPGKERELVAVITSGGTTNYADSVKGRFTISRDNAKNTVYLQMNSLKPEDTAVYYCAADVYWEFSPEYDYWGQGTQVTVSS
polyreactivity (PSR sort gate): low polyreactivity

QVQLVESGGGLVQAGGSLRLSCAASGIIFYEYVMGWYRQAPGKERELVAAISRSGGSTYYADSVKGRFTISRDNAKNTVYLQMNSLKPEDTAVYYCAVDAYRYWWTTYVSDFDYWGQGTQVTVSS
polyreactivity (PSR sort gate): high polyreactivity

QVQLVESGGGLVQAGGSLRLSCAASGIIFYFYTMGWYRQAPGKERELVAAISSSGGRTFYADSVKGRFTISRDNAKNTVYLQMNSLKPEDTAVYYCAAAHTREYYWGQGTQVTVSS
polyreactivity (PSR sort gate): high polyreactivity

QVQLVESGGGLVQAGGSLRLSCAASGIIFYGKAMGWYRQAPGKERELVAAITWSGGSTYYADSVKGRFTISRDNAKNTVYLQMNRLKPEDTAVYYCAALSGAHEHFVEYDYWGQGTQVTVSS
polyreactivity (PSR sort gate): low polyreactivity

QVQLVESGGGLVQAGGSLRLSCAASGIIFYGNVMGWYRQAPGKERELVAGINSSGASTYYADSVKGRFTISRDNAKNTVYLQMNSLKPEDTAVYYCAARGPRVRLNSYYAGRYDYWGQGTQVTVSS
polyreactivity (PSR sort gate): low polyreactivity

QVQLVESGGGLVQAGGSLRLSCAASGIIFYGYAMGWYRQAPGKERELVAAIRWRGGSTYYADSVKGRFTISRDNAKNTVYLQMNSLKPADTAVYFCAADQTRYTSVFSSTRYDYWGQGTQVTVSS
polyreactivity (PSR sort gate): low polyreactivity

QVQLVESGGGLVQAGGSLRLSCAASGIIFYGYVMGWYRQAPGKERELVATITSSGGSTYYADSVKGRFTISRDNAKNTVYLQMNSLKPEDTGVYYCAADYYYGAWVRHDYWGQGTQVTLSS
polyreactivity (PSR sort gate): low polyreactivity

QVQLVESGGGLVQAGGSLRLSCAASGIIFYHNAMGWYRQAPGKERELVASITEIGGSTYYADSVKGRFTISRDNAKNTVYLQMNSLKPEDTAVYYCAAGTLTSFSRYDYWGQGTQVTVSS
polyreactivity (PSR sort gate): low polyreactivity

QVQLVESGGGLVQAGGSLRLSCAASGIIFYLNAMGWYRLAPGKERELVAAISSSDGTTYYADSVKGRFTISRDNAKNTVYLQMNSLKPEDTAGYYCAAGQDWGYLDYDWVSYLYDYWGQGTQVTVSS
polyreactivity (PSR sort gate): low polyreactivity

QVQLVESGGGLVQAGGSLRLSCAASGIIFYLYAMGWYRQAPGKERELVAAITLSGSTTYYADSVKGRFTISRDNAKNTVYLQMNSLKPEDTAVYYCNADTPVRSDYWGQGTQVTVSS
polyreactivity (PSR sort gate): low polyreactivity

QVQLVESGGGLVQAGGSLRLSCAASGIIFYLYTKGWYRQAPGKERELVAAITRGGSTYYADSVKGRFTISRDNAKKTVYLQMNSLKPEDTAVYYCAAKHGPGYRRWYDYWGQGTQVTVSS
polyreactivity (PSR sort gate): high polyreactivity

QVQLVESGGGLVQAGGSLRLSCAASGIIFYRYAMGWYRQAPGKERELVAAISTRGGSTYYADSVKGRFTISRDNAKYTVYLHMNSLKPEDTAVYYCAAEWLRYLHDYWGQGTQVTVSS
polyreactivity (PSR sort gate): high polyreactivity

QVQLVESGGGLVQAGGSLRLSCAASGIIFYRYAMGWYRQAPGKERELVAAITWRGGSPYYADSVKGRFTISRDNAKNTVYLQMNSLKPEDTAVYYCAAESYWTATYTFDYWGQGTQVTVSS
polyreactivity (PSR sort gate): high polyreactivity

QVQLVESGGGLVQAGGSLRLSCAASGIIFYVNAMGWYRQAPGKERDLVAAITFGGDSTYYADSVKGRFTISRDNAMNTVSVQMNSLKPEDTAVYYCATDGDPAYPEMEYLGQGTQVTVSS
polyreactivity (PSR sort gate): low polyreactivity

QVQLVESGGGLVQAGGSLRLSCAASGIIFYVNAMGWYRQAPGKERELVAVISRRGGSTNYADSVKGRFTISRDNAKNTVYLQMNSLKPEDTAVYYCAAGYRTAYRGSSYYYWGQGTQVTVSS
polyreactivity (PSR sort gate): high polyreactivity

QVQLVESGGGLVQAGGSLRLSCAASGIIFYYNALGWYRQAPGKERELVAAIDDRGDSTYYADSVKGRFTISRDNAKNTVYLQMNSLKPEDTAVYYCAADRYVQLLGYFFEYDYWGQGTQVTVSS
polyreactivity (PSR sort gate): low polyreactivity

QVQLVESGGGLVQAGGSLRLSCAASGIIFYYYAMGWYRQPPGKERELVAAISWSGDGTYYADSVKGRFTISRDNPKNTVYLQMNSLKPEDTAVYYCAALNDGFSGYDYLDEYTDYGYWGQGTQVTVSS
polyreactivity (PSR sort gate): low polyreactivity

QVQLVESGGGLVQAGGSLRLSCAASGIIIGNNAMGWYRQAPGKERELVAPISRRGGSTYYADSVKGRFTISRDNAKNTVYLQMNSLKPEYTAVYYCAADIYRYNSYDYWGQGTQVTVSS
polyreactivity (PSR sort gate): low polyreactivity

QVQLVESGGGLVQAGGSLRLSCAASGIIIGYYAMGWYRQAPGKERELVAAISSIGGSTYYADSVKGRFTISRDNAKNTVYLQMNSLKPEDTAVYYCAAKYYGRYYRYLGSSFDYWGQGTQVTVSS
polyreactivity (PSR sort gate): high polyreactivity

QVQLVESGGGLVQAGGSLRLSCAASGIIINTYLMGWYRQAPGKERELVAAISRRGGSTYYADSVKGRFTISRDNAKITVYLQMNSLKPEDTAFYYCAADVLYQQAGTYYWGQGTQVNVSS
polyreactivity (PSR sort gate): high polyreactivity

QVQLVESGGGLVQAGGSLRLSCAASGIIIRYYGMGWYRQAPGKERELVARIRWTGGSTYYADSVKGRFTISRDNAKNTVYLQMNSLKPEDTAVYYCAADIWQYSRIANYHPYDYWGQGTQVTVSS
polyreactivity (PSR sort gate): low polyreactivity

QVQLVESGGGLVQAGGSLRLSCAASGIIISYYTMGWYRQAPGKERELVAAITGSGGSTYYADSVKGRFTISRDNAKNTVYLQMNSLKPEDTAVYYCAADPSLRQYAYFDYYYWGQGTQVTVSS
polyreactivity (PSR sort gate): low polyreactivity
